Data: patent EP4707393A1, “DOUBLE-STRANDED SIRNA, CONJUGATE THEREOF AND USE THEREOF” (CMS Research & Development Pte. Ltd., priority 2023, dated 2024)

What was measured:
[1] = system: human LPA gene (Genbank number: NM_005577.4); assay: Inhibitory activity against LPA mRNA, psiCHECK-2 dual-luciferase reporter vector in Huh7 cells; type: cell-based; conditions: Huh7 cells transfected with LPA_psiCHECK-2 plasmid, RNAiMAX transfection
How it was run: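 Huh7 cells transfected with psiCHECK-2 carrying human LPA, then treated next day with compounds (3 concentrations) delivered by RNAiMAX. Dual-Glo readout of firefly and Renilla luciferase per well. Percent inhibition calculated from the reporter ratio relative to the RNAiMAX control.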

LPA mRNA = assay: In vivo efficacy in LPA-HDI mouse model (liver LPA mRNA); design: species or system BALB/c mouse; conditions: 3 mg/kg single subcutaneous injection, Day 14, relative to PBS blank group, 4 mice per group
Protocol: The knockdown effect of the test double-stranded siRNA conjugate on the target gene LPA upon entry into the mouse is evaluated by rapid high-pressure injection of the physiological saline containing recombinant plasmid pcDNA-LPA carrying the target gene via the tail vein.
pcDNA-LPA plasmid, BALB/c mouse, PBS (phosphate buffer), and conjugates of the present invention.
Six-week-old female BALB/c mice were ordered and acclimated/quarantined for three days upon arrival in the animal room.
On Day 0, the mice were randomly grouped based on body weight data. After grouping, all mice were given a single administration via subcutaneous injection, with a dose volume of 10 mL/kg. Mice in Group 1 received PBS; mice in the other groups received the conjugates (dissolved in PBS).
On Day 13 post-administration, all mice were injected with normal saline containing the pcDNA-LPA plasmid via the tail vein within 5 seconds. The injection volume (mL) = mouse body weight (g) × 8%. The amount of plasmid injected per mouse was 10 µg.
On Day 14 post-administration, all groups of mice were euthanized by CO2 inhalation, and 2 liver samples were collected from each mouse. Liver samples were treated overnight with RNAlater at 4 °C, then RNAlater was removed, and stored at -80 °C for detection of LPA gene expression levels.

hPBMCs = assay: Immunogenicity test in hPBMCs (IL-6 and TNF-α ELISA of supernatant); type: cell-based, human; conditions: 18-20 h
Protocol: 1 Experimental material • 1.1 Double-stranded siRNA conjugates • 1.2 hPBMCs, purchased from Shanghai Sailybio Medical Co., LTD. • 1.3 Main reagents: Penicillin-Streptomycin (Cat. No.: 15140122), RNase-free water (Cat. No.: AM9938), IL-6 ELISA kit (Cat. No.: 555220), TNF-α ELISA kit (Cat. No.: 555212), LPS (Cat. No.: L2630), etc. 2 Experimental method • 2.1 Compound Preparation: Compounds were prepared as stock solutions with enzyme-free water. Compound weight = powder weight * purity. The concentration of prepared solutions was 900 µg/mL, followed by three-fold serial dilution with enzyme-free water. Each concentration was diluted 10-fold with 1640 medium, resulting in a final enzyme-free water content of 5.0%. • 2.2 Experimental procedure: • 2.2.1 PBMC cells were resuscitated one day in advance and incubated overnight in 1640 complete medium. • 2.2.2 On the day of the experiment, PBMC cells were centrifuged at 300 × g for 8 minutes, and the cell density was adjusted to 1.6 × 10^6 mL with 1640 complete medium. The cells were then added to a 96-well plate, 125 µL per well, and incubated in a 37 °C, 5% CO2 incubator for 15 minutes. • 2.2.3 The diluted test compounds were added to the 96-well plate according to the plate map, all in duplicate, 125 µL for each well; the positive control group and the blank group were added with an equal volume of 1640 complete culture medium containing the same amount of enzyme-free water. • 2.2.4 After gently shaking, the well plates were incubated in an incubator at 37 °C for 18-20 h. The supernatant was collected by centrifugation, and secretions of TNF-α and IL-6 were detected by ELISA. • 2.2.5 Data were analyzed using GraphPad Prism 8 software. 3 Experimental results Table 10. IL-6 and TNF-α levels in the cell supernatant of donor 1 hPBMCs treated with different doses of test compounds

Row | Substance | EC50 [1] [nM] | % Downregulation of LPA mRNA (LPA mRNA) [%] | IL-6 (hPBMCs; donor 1 hPBMCs, 5 µg/mL) [pg/mL] | TNF alpha (hPBMCs; donor 1 hPBMCs, 5 µg/mL) [pg/mL] | IL-6 (hPBMCs; donor 1 hPBMCs, 15 µg/mL) [pg/mL] | TNF alpha (hPBMCs; donor 1 hPBMCs, 15 µg/mL) [pg/mL] | IL-6 (hPBMCs; donor 1 hPBMCs, 45 µg/mL) [pg/mL] | TNF alpha (hPBMCs; donor 1 hPBMCs, 45 µg/mL) [pg/mL] | IL-6 (hPBMCs; donor 2 hPBMCs, 5 µg/mL) [pg/mL] | TNF alpha (hPBMCs; donor 2 hPBMCs, 5 µg/mL) [pg/mL] | IL-6 (hPBMCs; donor 2 hPBMCs, 15 µg/mL) [pg/mL] | TNF alpha (hPBMCs; donor 2 hPBMCs, 15 µg/mL) [pg/mL] | IL-6 (hPBMCs; donor 2 hPBMCs, 45 µg/mL) [pg/mL] | TNF alpha (hPBMCs; donor 2 hPBMCs, 45 µg/mL) [pg/mL]
1 | Z32: siRNA conjugate: sense SEQ ID NO:47, ligand D18 at 3' end of sense strand, antisense SEQ ID NO:71 (sense GCCCCTTATTGTTANACGA; antisense TCGTATNACAATAAGGGGCTGT; ligand D18 at sense 3' end; listed as RNA; modified_base 1: mod_base = OTHER; note = 2'-O-methylguanosine; modified_base 2: mod_base = OTHER; note = 2'-O-methylcytidine; modified_base 3..5: mod_base = OTHER; modified_base 6: mod_base = OTHER; note = 2'-O-met; note = E-type vinylphosphonate-modified 2'-O-methyluridine; note = 2'-fluorocytidine; modified_base 3: mod_base = OTHER; modified_base 4: mo) | 0.21 | 86.4 |  |  |  |  |  |  |  |  |  |  |  | 
2 | Z34: siRNA conjugate: sense SEQ ID NO:48, ligand D18 at 3' end of sense strand, antisense SEQ ID NO:73 (sense CAGCCCCTTATTGTTANACGA; antisense TCGTATNACAATAAGGGGCNGTT; ligand D18 at sense 3' end; listed as RNA; modified_base 1: mod_base = OTHER; note = 2'-O-methylcytidine; modified_base 2: mod_base = OTHER; note = 2'-O-methyladenosine; modified_base 3: mod_base = OTHER; note = 2'-O-methylguanosine; modified_base 4..6: mod_base = OTHER; note = 2'-O-me; note = E-type vinylphosphonate-modified 2'-O-methyluridine; note = 2'-fluorocytidine; modified_base 4: mo) | 3.05 | 78.1 |  |  |  |  |  |  |  |  |  |  |  | 
3 | Z35: siRNA conjugate: sense SEQ ID NO:49, ligand D18 at 3' end of sense strand, antisense SEQ ID NO:74 (sense CAGCCCCTTATTGTTATACGA; antisense TCGTATNACAATAAGGGGCNGTT; ligand D18 at sense 3' end; listed as RNA; modified_base 1: mod_base = OTHER; note = 2'-O-methylcytidine; modified_base 2: mod_base = OTHER; note = 2'-O-methyladenosine; modified_base 3: mod_base = OTHER; note = 2'-O-methylguanosine; modified_base 4..7: mod_base = OTHER; note = 2'-O-me; note = E-type vinylphosphonate-modified 2'-O-methyluridine; note = 2'-deoxycytidine; modified_base 4: mod) | 0.14 | 92.3 |  |  |  |  |  |  |  |  |  |  |  | 
4 | Z40: siRNA conjugate: sense SEQ ID NO:52, ligand D01 at 3' end of sense strand, antisense SEQ ID NO:78 (sense CCTGCCAAGCTTGGTCNTCTA; antisense TCTAGATGNCCAAGCTTGGCNGG; ligand D01 at sense 3' end; listed as RNA; modified_base 1..2: mod_base = OTHER; note = 2'-O-methylcytidine; modified_base 3: mod_base = OTHER; note = 2'-O-methyluridine; modified_base 4: mod_base = OTHER; note = 2'-O-methylguanosine; modified_base 5..6: mod_base = OTHER; note = 2'-O-m; modified_base 1: mod_base = OTHER; note = 2'-fluoroadenosine; modified_base 5: mod_base = OTHER; note = 2'-O-methyl) | 0.07 | 59.0 | 1333.8 | 35.9 | 1266.6 | 32.3 | 1343.4 | 32.7 |  |  |  |  |  | 
5 | Z43: siRNA conjugate: sense SEQ ID NO:49, ligand D01 at 3' end of sense strand, antisense SEQ ID NO:81 (sense CAGCCCCTTATTGTTATACGA; antisense NCGTATNACAATAAGGGGCNGTT; ligand D01 at sense 3' end; listed as RNA; modified_base 1: mod_base = OTHER; note = 2'-O-methylcytidine; modified_base 2: mod_base = OTHER; note = 2'-O-methyladenosine; modified_base 3: mod_base = OTHER; note = 2'-O-methylguanosine; modified_base 4..7: mod_base = OTHER; note = 2'-O-me; note = n is B30; note = 2'-deoxycytidine; modified_base 4: mod_base = OTHER; note = 2'-O-methyluridine; m) | 0.09 | 84.5 | 1270.9 | 35.4 | 1339.1 | 36.9 | 1314.4 | 32.2 |  |  |  |  |  | 
6 | Z47: siRNA conjugate: sense SEQ ID NO:51, ligand D01 at 3' end of sense strand, antisense SEQ ID NO:83 (sense CCTGCCAAGCTTGGTCATCTA; antisense NAGATGNCCAAGCTTGGCNGGTT; ligand D01 at sense 3' end; listed as RNA; modified_base 1..2: mod_base = OTHER; note = 2'-O-methylcytidine; modified_base 3: mod_base = OTHER; note = 2'-O-methyluridine; modified_base 4: mod_base = OTHER; note = 2'-O-methylguanosine; modified_base 5..6: mod_base = OTHER; note = 2'-O-m; modified_base 1: mod_base = OTHER; note = n is B33; modified_base 2: mod_base = OTHER; note = 2'-deoxyadenosine; note = 2'-O-methyladenosine) | 0.2 | 64.0 |  |  |  |  |  |  | 49.9 | 15.6 | 0.0 | 3.4 | 16.7 | 9.5
7 | Z48: siRNA conjugate: sense SEQ ID NO:51, ligand D01 at 3' end of sense strand, antisense SEQ ID NO:84 (sense CCTGCCAAGCTTGGTCATCTA; antisense NAGATGNCCAAGCTTGGCNGGTT; ligand D01 at sense 3' end; listed as RNA; modified_base 1..2: mod_base = OTHER; note = 2'-O-methylcytidine; modified_base 3: mod_base = OTHER; note = 2'-O-methyluridine; modified_base 4: mod_base = OTHER; note = 2'-O-methylguanosine; modified_base 5..6: mod_base = OTHER; note = 2'-O-m; modified_base 1: mod_base = OTHER; note = n is B34; modified_base 2: mod_base = OTHER; note = 2'-deoxyadenosine; note = 2'-O-methyladenosine) | 0.09 | 64.0 |  |  |  |  |  |  | 32.0 | 15.3 | 49.5 | 20.4 | 1.1 | 5.9
